According to the supplement of paper PMC10567573:

B1: CLCN6 (parent)
chain: TGLVGLFVDFFVRLFTQLKFGVVQ
B2: ZNF8 (parent)
chain: RIHTGERPYMCKECGKAFSQNSSL

Variants of: B1
Assay: protein stability index of a GFP-peptide fusion (GPS, HEK-293T) (PSI 1-6); higher = more stable
Conditions: c terminus: a fixed tail appended
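Note: lentivirally expressed fusions sorted by FACS into six bins by GFP to DsRed ratio, PSI derived from sequencing read proportions per bin multiplied by bin number.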

Protein stability index, by site and new letter:
R13: T 2.19; N 1.91; C 2.09; K 2.73; A 2.04; H 2.22; Q 1.81
F7: V 3.05; T 2.35; H 2.44; C 2.89; A 2.38; W 2.28; D 3.18
V4: D 4.33; A 1.97; R 2.19; S 2.63; H 2.28; Q 2.79; T 2.38
F15: V 2.72; P 2.86; N 2.67; Q 3.33
L3: S 2.05; P 2.45; W 3.37; R 2.52; I 2.36
L14: H 1.85; F 2.57; V 2.02; Q 1.55; C 2.1; N 1.83; Y 2.25; S 2.19
D9: W 1.51; A 1.59; T 1.97; R 3.51
F10: C 1.42; G 1.29; T 2; Y 2.27; W 2.7; V 2.42; K 1.98
Q17: E 2; N 2.44; L 2.43; F 2.44
V23: P 1.97; M 2.68; R 3.09; T 2.36; D 2.41; A 2.27
G2: Q 1.73; R 2.78; I 2.36; W 2.22
G5: F 1.72; T 1.34; C 2.42; M 2.48; Q 2.21
F20: M 2.77; R 4.55; Q 3.83; I 2.97; K 4.3
F11: C 2.93; Y 2.32; S 1.77
T1: E 1.92; S 2.6
V22: I 2.84; Q 2.48; W 2.72; N 1.25; G 1.72; M 2.58
G21: H 3.06; L 3.33; W 3.59; D 2.38; R 3.56; M 3.39; P 2.35; Q 2.77; E 2.3
K19: P 1.91; D 3.05; E 4.38; A 2.84; H 3.23; S 2.92
Q24: N 2.55; P 1.88; C 1.26; S 2.94; I 2.66; W 2.36; E 2.08; L 2.14
V8: M 2.08; H 2.77; P 1.7; A 1.6; R 2.25; W 3.01
V12: I 2.02; E 1.96; T 2.08; F 2.1; W 2.95; R 2.04
L18: F 2.46; W 1.66
L6: I 2.83; Q 3.53; F 2.4; S 2.99
T16: D 2.42; K 2.76; R 3.85; W 3.32; S 2.91

Variants of: B2
Assay: as above
Conditions: c terminus: a fixed tail appended

Protein stability index, by site and new letter:
G5: H 2.63; M 2.62; R 2.13; P 3.02; Y 2.73; C 3.78; V 2.04; Q 2.47; A 2.98; W 2.49
K16: C 1.82; V 1.71; H 2.29; F 2.52; N 1.8; P 2.06; R 2.3; M 2.63; Q 2.27; E 2.97
S19: Y 2.18; V 2; G 2.6; K 2.27; E 3.26; Q 2.77; N 2.31; H 2.8; P 1.81
T4: G 2.19; W 1.89; V 2.59; M 1.88; E 3.16; A 2.21; Q 3.24; I 2.68; L 2.16; C 3.04
F18: R 3.25; P 3.45; S 3.57; W 1.99; G 3.35; Q 2.79; K 3.29
Q20: W 2.5; H 2.49; F 1.83; S 2.2; A 2.65; D 2.37; R 2.54; M 2.21
G15: K 2.99; M 2.67; F 2.09; E 3.46; Q 3.26; I 1.98; P 2.54; R 2.76; H 2.32; V 2.33
K12: Y 2.27; F 1.8; G 2.38; L 1.72; M 2.52; R 1.99; A 3.12; S 2.46; Q 2.11; N 2.66; V 2.07; P 2.54
C14: D 3.48; Q 3; P 2.99; H 2.5; L 2.42; Y 2.2; T 2.81
S22: H 2; M 2.22; N 2.37; W 2.22; P 2.6; V 1.9; T 2.34; R 2.19; Q 2.58; C 3.07; G 2.68
N21: W 1.7; Q 2.48; L 1.86; F 1.8; H 2.4; T 2.66; M 2.17; V 1.4; S 2.59; C 2.46; E 2.65
C11: E 3.42; H 2.75; L 2.68; A 2.73; K 3.08; D 2.78; Y 2.28
A17: I 2.41; Q 3.01; C 2.46; H 2.42; V 3.24; Y 2.37; L 2.47; T 3.29; K 3
H3: D 2.91; N 2.81; Y 2.33; C 3.28; P 2.38; F 1.9; V 2.05; Q 2.47; A 1.99; R 1.96; K 2.46
E6: R 1.71; G 1.5; H 2.36; P 2.34; I 1.68; L 2; N 2.24; Y 1.88; V 1.98
S23: W 1.94; M 1.98; T 2.27; N 2.44; D 2.8; F 1.77; C 2.75; E 2.88
E13: F 1.59; R 1.87; V 2.1; N 2.35; S 1.95; P 2.07; D 1.39; G 1.94; C 1.85
R7: P 2.44; L 2.65; S 2.53; I 2.6; G 3.23; H 3.36; K 2.35
P8: R 2.85; M 2.98; Y 2.62; G 2.53; N 2.04; F 2.28
R1: K 3.01; C 4.88; W 2.27; P 3.17; V 2.88; Q 2.75
M10: R 1.95; V 2.24; Y 2.24; D 2.84; H 2.52; T 3.03; E 3.1; S 2.26; Q 3.16
I2: P 3.72; E 2.87; M 2.44; R 2.94; L 2.35; V 2.29
Y9: E 3.27; G 3.21; F 3.21; L 2.43; M 2.6; D 3.29; T 2.42
L24: Y 2.18; S 3.55; Q 3.21; K 3.29; H 3.02
